From patent publication US20170369574A1
Several values for one entry are separate records, joined by “and”; a condition that tells them apart may be missing. Equal values may be shown once.

Biological target: CD64 (FcγRI) (human) (UniProt P12314)
Assay: cell-based or functional assay

UniProt P12314, sequence (P12314 16-374): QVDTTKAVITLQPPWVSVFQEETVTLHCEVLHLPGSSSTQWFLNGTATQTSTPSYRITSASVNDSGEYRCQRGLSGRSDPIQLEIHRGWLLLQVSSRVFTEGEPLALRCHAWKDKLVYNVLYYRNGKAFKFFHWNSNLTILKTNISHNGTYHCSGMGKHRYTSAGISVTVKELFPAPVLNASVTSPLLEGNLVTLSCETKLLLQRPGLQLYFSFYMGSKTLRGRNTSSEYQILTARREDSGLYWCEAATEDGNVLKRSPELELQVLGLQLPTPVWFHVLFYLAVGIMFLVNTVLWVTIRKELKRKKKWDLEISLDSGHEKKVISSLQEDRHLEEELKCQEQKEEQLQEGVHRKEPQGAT
H22(scFv)-Ang, sequence (chain): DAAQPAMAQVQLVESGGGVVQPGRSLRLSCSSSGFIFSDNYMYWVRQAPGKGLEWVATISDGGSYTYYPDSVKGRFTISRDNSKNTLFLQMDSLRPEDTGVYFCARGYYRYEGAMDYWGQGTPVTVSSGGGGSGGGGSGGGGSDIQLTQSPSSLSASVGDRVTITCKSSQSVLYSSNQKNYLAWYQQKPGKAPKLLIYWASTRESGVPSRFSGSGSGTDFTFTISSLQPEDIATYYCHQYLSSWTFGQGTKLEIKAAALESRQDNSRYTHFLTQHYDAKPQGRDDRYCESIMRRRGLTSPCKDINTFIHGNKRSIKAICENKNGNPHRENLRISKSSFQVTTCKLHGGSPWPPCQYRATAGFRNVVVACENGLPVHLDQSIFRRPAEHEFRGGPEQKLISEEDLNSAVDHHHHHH

| IC50/EC50, XTT growth inhibition, HL-60 cells | Molecule | IC50/EC50, XTT growth inhibition, U937 cells [nM] | IC50/EC50, XTT growth inhibition, hM1φ |
| --- | --- | --- | --- |
| 0.04 nM | H22(scFv)-MAP |  |  |
| 2.4 nM and 5.7 nM | GBR201K-H22(scFv) (scFv) HIDDDDKIIGGHEAKPHSRPYMAFLMIWDQKSLKRCGGFLIRDDFVLTAAHCWGSSINVTLGAHNIKEQEPTQQFIPVKRAIPHPAYNPKNFSNDIMLLQLERKAKRTRAVQPLRLPSNKAQVKPGQTCSVAGWGQTAPLGKHSHTLQEVKMTVQEDRKCESDLRHYYDSTIELCVGDPEIKKTSFKGDSGGPLVCNKVAQGIVSYGKNNGMPPRACTKVSSFVHWIKKTMKRYAEHEGDAAQPAMAQVQLVESGGGVVQPGRSLRLSCSSSGFIFSDNYMYWVRQAPGKGLEWVATISDGGSYTYYPDSVKGRFTISRDNSKNTLFLQMDSLRPEDTGVYFCARGYYRYEGAMDYWGQGTPVTVSSGGGGSGGGGSGGGGSDIQLTQSPSSLSASVGDRVTITCKSSQSVLYSSNQKNYLAWYQQKPGKAPKLLIYWASTRESGVPSRFSGSGSGTDFTFTISSLQPEDIATYYCHQYLSSWTFGQGTKLEIKAAAGPHHHHHH |  |  |
|  | GB-H22(scFv) (scFv) HIDDDDKIIGGHEAKPHSRPYMAFLMIWDQKSLKRCGGFLIRDDFVLTAAHCWGSSINVTLGAHNIKEQEPTQQFIPVKRAIPHPAYNPKNFSNDIMLLQLERKAKRTRAVQPLRLPSNKAQVKPGQTCSVAGWGQTAPLGKHSHTLQEVKMTVQEDRKCESDLRHYYDSTIELCVGDPEIKKTSFKGDSGGPLVCNKVAQGIVSYGRNNGMPPRACTKVSSFVHWIKKTMKRYGSKLAEHEGDAAQPAMAQVQLVESGGGVVQPGRSLRLSCSSSGFIFSDNYMYWVRQAPGKGLEWVATISDGGSYTYYPDSVKGRFTISRDNSKNTLFLQMDSLRPEDTGVYFCARGYYRYEGAMDYWGQGTPVTVSSGGGGSGGGGSGGGGSDIQLTQSPSSLSASVGDRVTITCKSSQSVLYSSNQKNYLAWYQQKPGKAPKLLIYWASTRESGVPSRFSGSGSGTDFTFTISSLQPEDIATYYCHQYLSSWTFGQGTKLEIKAAAGPHHHHHH |  | 0.414 nM and 0.14 nM |

| Molecule | IC50/EC50, XTT growth inhibition, HL-60 cells | IC50/EC50, XTT growth inhibition, U937 cells [nM] | IC50/EC50, XTT growth inhibition, hM1φ |
| --- | --- | --- | --- |
| H22(scFv)-Ang | 10 nM | 0.2 | 0.29 nM and 0.108 nM |
